Where “and” joins values, the source holds several entries; their conditions need not be identical. Equal entries are not always repeated. Where two headings read alike, the source gives them in different places.
B1: EEEV-147 (antibody, V domains shown)
VH: QVQLVQSGAEVKKPGASVKVSCKASGYTFTNYGITWVRQAPGQGLEWMGWISAYNGNTDYAQKLQGRVTMTTDTSTSTAYMELGSLRSDDTAVYYCARELWFGDLGYWGQGTLVTVSS
VL: EIVLTQSPGTLSLSPGERATLSCRASQSVSRSSSSYLAWYQQKPGQAPRLLIYGASSRATGIPDRFSGSGSGTDFTLTISRLEPEDVAVYYCQQYGSSPQTFGQGTKLEIK
B2: EEEV-143 (antibody, V domains shown)
VH: QVQLVESGGGVVQPGRSLRLSCAASGFTFSNYGIHWVRQAPGKGLEWVAVISYDGRHKYIADPVKGRFTISRDNSKNMLYLQMNSLRTEDTAVYYCAKDTSGWYEFFDSWGQGIPVTVSS
VL: EIVMTQSPATLSVSPGERATLSCRASQSVATNVAWYQQKPGQAPRLLIYGASTRATGIPARFSGSGSGTEFTLTISSLQSEDFAVYYCQQCNDWLTFGQGTKVEIK
B3: EEEV-33 (antibody, V domains shown)
VH: QVTLKESGPALVKPTQTLTLTCTFSGFSLSTSGMRVSWIRQPPGKALEWLARIDWDDDKFYSTSLKTRLTISKDTSKNQVVLRMTNMDPVDTATYYCARILPGYCSGGSCYYNYHFDYWGQGTLVTVSS
VL: SYVLTQPPSVSVAPGQTARITCGGNNIGSKSVHWYQQKPGQAPVLVVYHDSDRPSGIPERFSGSNSGNTATLTISRVEAGDEADYYCQVWDSSSDPYVFGTGTKVTVL

How the values were obtained:
[1] = molecular target: Eastern equine encephalitis virus (EEEV) strain FL93-939 (Eastern equine encephalitis virus, strain FL93-939)
[2] = molecular target: Eastern equine encephalitis virus (EEEV) strain FL93-939 (Eastern equine encephalitis virus, strain FL93-939); remark: listed apart in the source
[3] = molecular target: Eastern equine encephalitis virus (EEEV) strain FL93-939 (Eastern equine encephalitis virus, strain FL93-939); remark: listed apart in the source
[4] = molecular target: Recombinant EEEV E2 glycoprotein (E3E2) (strain V105; IBT Bioservices) (Eastern equine encephalitis virus, strain V105); experiment: ELISA, mAb on coated recombinant E2

| Binder | IC50, neutralization, CPE assay [1] [µg/mL] | IC50, neutralization, PRNT [2] [nM] | IC50, neutralization, PRNT [3] [nM] | EC50 [4] |
| --- | --- | --- | --- | --- |
| B1 | < 1 | – | – | – |
| B2 | – | 0.315 | – | – |
| B3 | < 0.01 | – | < 0.037 | < 4 nM and < 1.2 µg/mL |
